In the Immune Epitope Database (IEDB):
Each block holds one sequence with its values, some of them ahead of it.

How the values were obtained:
HLA-A*02:01 [1] = experiment: IEDB peptide-MHC binding, purified MHC/competitive/fluorescence; ≥ and ≤ were set here for values at or beyond the usual limits of such assays
HLA-A*24:02 = experiment: as above
HLA-B*07:02 [2] = experiment: as above
HLA-B*15:01 [3] = experiment: as above
HLA-B*15:03 = experiment: IEDB peptide-MHC binding, purified MHC/competitive/radioactivity; filed as Kd, often an IC50 or EC50 that approximates it; ≥ and ≤ were set here for values at or beyond the usual limits of such assays; details: source organism: Vaccinia virus WR
HLA-B*51:01 [4] = experiment: IEDB peptide-MHC binding, purified MHC/direct/fluorescence; filed as Kd, often an IC50 or EC50 that approximates it; ≥ and ≤ were set here for values at or beyond the usual limits of such assays; details: source organism: Helicobacter pylori
HLA-B*15:42 = experiment: IEDB peptide-MHC binding, purified MHC/competitive/fluorescence; filed as Kd, often an IC50 or EC50 that approximates it; ≥ and ≤ were set here for values at or beyond the usual limits of such assays
HLA-B*45:06 = experiment: as above
HLA-B*83:01 = experiment: as above
HLA-C*04:01 = experiment: as above
HLA-B*58:01 [5] = experiment: as above; details: source organism: Escherichia coli
HLA-A*68:02 = experiment: as above; details: source organism: Yersinia pestis Nepal516
HLA-A*24:03 = experiment: as above; details: source organism: Encephalitozoon cuniculi GB-M1
HLA-B*57:01 = experiment: as above; details: source organism: Encephalitozoon cuniculi GB-M1
HLA-B*39:01 = experiment: as above; details: source organism: Encephalitozoon cuniculi GB-M1
HLA-B*18:01 [6] = experiment: as above; details: source organism: Encephalitozoon cuniculi GB-M1
HLA-A*26:01 [7] = experiment: as above; details: source organism: Encephalitozoon cuniculi GB-M1
HLA-A*02:01 [8] = experiment: as above; details: source organism: Encephalitozoon cuniculi GB-M1
HLA-A*03:01 [9] = experiment: as above; details: source organism: Encephalitozoon cuniculi GB-M1
HLA-A*02:12 = experiment: as above; details: source organism: Encephalitozoon cuniculi GB-M1
HLA-A*02:11 = experiment: as above; details: source organism: Encephalitozoon cuniculi GB-M1
HLA-A*29:02 = experiment: as above; details: source organism: Encephalitozoon cuniculi GB-M1
HLA-B*46:01 = experiment: as above
HLA-A*02:19 = experiment: as above; details: source organism: Encephalitozoon cuniculi GB-M1
HLA-A*02:03 = experiment: as above; details: source organism: Encephalitozoon cuniculi GB-M1
HLA-B*15:01 [10] = experiment: as above; details: source organism: Encephalitozoon cuniculi GB-M1
HLA-B*51:01 [11] = experiment: as above; details: source organism: Encephalitozoon cuniculi GB-M1
HLA-B*27:03 = experiment: as above; details: source organism: Encephalitozoon cuniculi GB-M1
HLA-B*44:02 = experiment: IEDB peptide-MHC binding, purified MHC/direct/fluorescence; filed as Kd, often an IC50 or EC50 that approximates it; ≥ and ≤ were set here for values at or beyond the usual limits of such assays; details: source organism: Escherichia coli O157:H7
HLA-A*26:01 [12] = experiment: as above; details: source organism: Escherichia coli O157:H7
HLA-C*07:02 = experiment: as above; details: source organism: Escherichia coli O157:H7 str. EDL933
HLA-A*02:01 [13] = experiment: as above; details: source organism: Escherichia coli O157:H7
HLA-B*27:05 = experiment: as above; details: source organism: Escherichia coli O157:H7
HLA-A*03:01 [14] = experiment: as above; details: source organism: Escherichia coli O157:H7
HLA-B*08:01 = experiment: as above; details: source organism: Escherichia coli O157:H7
HLA-B*40:01 = experiment: as above
HLA-A*11:01 = experiment: as above; details: source organism: Escherichia coli O157:H7
HLA-B*58:01 [15] = experiment: as above; details: source organism: Escherichia coli O157:H7
HLA-C*06:02 = experiment: as above
HLA-A*69:01 = experiment: as above; details: source organism: Escherichia coli O157:H7
HLA-A*31:01 = experiment: as above; details: source organism: Escherichia coli O157:H7
HLA-A*01:01 = experiment: as above; details: source organism: Escherichia coli O157:H7
HLA-B*15:01 [16] = experiment: as above; details: source organism: Escherichia coli O157:H7
HLA-B*07:02 [17] = experiment: as above; details: source organism: Escherichia coli O157:H7
HLA-C*14:02 = experiment: as above; details: source organism: Burkholderia vietnamiensis G4
HLA-B*18:01 [18] = experiment: as above; details: source organism: Bordetella avium
HLA-C*15:02 = experiment: as above; details: source organism: Burkholderia vietnamiensis G4
[19] = source organism: Zaire ebolavirus
[20] = source organism: Vaccinia virus
[21] = source organism: Helicobacter pylori 26695
[22] = source organism: Sudan ebolavirus
[23] = source organism: Yersinia pestis Nepal516
[24] = source organism: human gammaherpesvirus 4
[25] = source organism: Burkholderia vietnamiensis G4

Sequence: ARLLNLSGV
IC50 (HLA-A*02:01 [1]; [19]): 9.98 µM
IC50 (HLA-A*24:02; [19]): 32.8 µM
IC50 (HLA-B*07:02 [2]; [19]): ≥ 152 µM

Sequence: FANPLSNPF
IC50 (HLA-A*02:01 [1]; [20]): 2.53 µM
IC50 (HLA-A*24:02; [20]): 2.78 µM
IC50 (HLA-B*15:01 [3]; [20]): 5.74 µM
IC50 (HLA-B*07:02 [2]; [20]): 69.1 µM
Kd (HLA-B*15:03): 0.00192 µM

Sequence: FPIQDFPII
Kd (HLA-B*51:01 [4]): 0.156 µM
Kd (HLA-B*15:42; [21]): ≥ 5 µM
Kd (HLA-B*45:06; [21]): ≥ 5 µM
Kd (HLA-B*83:01; [21]): 2.74 µM
Kd (HLA-C*04:01; [21]): ≥ 5 µM

Sequence: FQKAFSMPL
IC50 (HLA-A*02:01 [1]; [22]): 0.784 µM
IC50 (HLA-A*24:02; [22]): 27.5 µM
IC50 (HLA-B*15:01 [3]; [22]): 2.11 µM
IC50 (HLA-B*07:02 [2]; [22]): 16 µM

Kd (HLA-B*58:01 [5]): ≥ 20 µM
Sequence: KGIHPQNHL

Sequence: LLQRWGGTC
IC50 (HLA-A*02:01 [1]; [19]): 2.49 µM
IC50 (HLA-B*15:01 [3]; [19]): 41.3 µM
IC50 (HLA-B*07:02 [2]; [19]): ≥ 473 µM

Sequence: MTHPQSEAA
Kd (HLA-B*15:42; [23]): ≥ 5 µM
Kd (HLA-A*68:02): ≤ 0.0001 µM
Kd (HLA-B*83:01; [23]): ≥ 5 µM
Kd (HLA-C*04:01; [23]): ≥ 5 µM

Kd (HLA-A*24:03): ≥ 20 µM
Kd (HLA-B*57:01): ≥ 20 µM
Kd (HLA-B*39:01): ≥ 20 µM
Kd (HLA-B*18:01 [6]): ≥ 20 µM
Kd (HLA-A*26:01 [7]): ≥ 20 µM
Kd (HLA-A*02:01 [8]): ≥ 20 µM
Kd (HLA-A*03:01 [9]): ≥ 20 µM
Kd (HLA-A*02:12): 0.298 µM
Kd (HLA-A*02:11): ≥ 20 µM
Kd (HLA-A*29:02): ≥ 20 µM
Kd (HLA-B*46:01; source organism: Encephalitozoon cuniculi GB-M1): ≥ 20 µM
Kd (HLA-A*02:19): ≥ 20 µM
Kd (HLA-A*02:03): ≥ 20 µM
Kd (HLA-B*15:01 [10]): ≥ 20 µM
Kd (HLA-B*51:01 [11]): ≥ 20 µM
Kd (HLA-B*27:03): ≥ 20 µM
Sequence: NLFEIEWEE

Sequence: RPVVLTGGT
IC50 (HLA-A*02:01 [1]; source organism: Variola virus): ≥ 89.9 µM
IC50 (HLA-A*24:02; source organism: Variola virus): 0.104 µM
IC50 (HLA-B*07:02 [2]; source organism: Variola virus): 24.1 µM

Kd (HLA-B*44:02): ≥ 20 µM
Kd (HLA-A*26:01 [12]): ≥ 20 µM
Kd (HLA-C*07:02): 0.041 µM
Kd (HLA-A*02:01 [13]): ≥ 20 µM
Kd (HLA-B*27:05): 0.12 µM
Kd (HLA-A*03:01 [14]): ≥ 20 µM
Kd (HLA-B*08:01): 1.9 µM
Kd (HLA-B*40:01; source organism: Escherichia coli O157:H7): ≥ 20 µM
Kd (HLA-A*11:01): ≥ 20 µM
Kd (HLA-B*58:01 [15]): ≥ 20 µM
Kd (HLA-C*06:02; source organism: Escherichia coli O157:H7 str. EDL933): 0.022 µM
Kd (HLA-A*69:01): ≥ 20 µM
Kd (HLA-A*31:01): ≥ 20 µM
Kd (HLA-A*01:01): ≥ 20 µM
Kd (HLA-B*15:01 [16]): ≥ 20 µM
Kd (HLA-B*07:02 [17]): ≥ 20 µM
Sequence: RRNDVARIF

Sequence: RRVRRRVLV
Kd (HLA-C*06:02; [24]): 0.316 µM

Sequence: WEMRAGREI
Kd (HLA-B*15:42; [24]): ≥ 5 µM
Kd (HLA-B*45:06; [24]): ≥ 5 µM
Kd (HLA-B*83:01; [24]): ≥ 5 µM
Kd (HLA-C*04:01; [24]): ≥ 5 µM

Sequence: WMRWGGWPF
Kd (HLA-C*14:02): 4.72 µM
Kd (HLA-B*18:01 [18]): 4.66 µM
Kd (HLA-C*15:02): ≥ 20 µM
Kd (HLA-B*40:01; source organism: Bordetella avium): 0.512 µM
Kd (HLA-C*06:02; [25]): ≥ 20 µM
Kd (HLA-B*15:42; [25]): ≥ 5 µM
Kd (HLA-B*45:06; [25]): ≥ 5 µM
Kd (HLA-B*83:01; [25]): ≥ 5 µM
Kd (HLA-B*46:01; [25]): 0.418 µM
